Experimental data taken from the nanobody polyreactivity screen of Harvey et al. (2022).

Assay: yeast display, Sf9 membrane polyspecificity reagent, FACS + sequencing; frameworks hold sequencing errors
Method in brief: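 Synthetic nanobody libraries on Saccharomyces cerevisiae BJ5465 were galactose-induced for 36–48 hours, stained 1 hour at 4 °C with 10% biotinylated, detergent-solubilized Sf9 membrane reagent and enriched on streptavidin microbeads. FACS then separated cells into low and high (top ~1%) gates by anti-HA (expression) and streptavidin (reagent binding) fluorescence. Genes were colony-PCR amplified, MiSeq 2 × 250 sequenced and CDR-length filtered. A clone's polyreactivity label is that of its gate of origin.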

| Sequence | polyreactivity (PSR sort gate) |
| --- | --- |
| QVQHVESGGGLVQAGGSLRLSCAASGVIIIGNAVGWYREAPVKEWEFVASIRGVGSTNYADSVKGRFTISRDNAKNTVYVQMNSLKPADSAVYYCATSVDRALYTQTRGDYEYWGQGTQVTVSS | low polyreactivity |
| QVQLVESGGGLVQAGGSLRLSCAASGSIFYTNAMGWYRQAPGKERELVAAIRKSGGSTYYADSVKGRFTISRDNAKNTVYLQMNSLKPEDTAVYYCNKLYRVPQDLHDYWGQGTQVTVSS | high polyreactivity |
| QVQLVESGGGLVQAGGSLRLSCAASGSTFYLYAMGLYRQAPGKERELVAAISSGGRTNYADSVKGRFTISRDNAKNTVYLQMNSLKPEDTAVYYCAARIQWPTWSLYYYWGQGTQVTVSS | high polyreactivity |
| QVQLVESGGGLVQAGGSLRLSCAASGSIFLWNAMGWYRQAPGKERELVAAISSSGGSTYYADSVKGRFTISRDNAKNTVYLQMNSLKPEDTAVYYCAAVSRSYYNSYNYWGQGTQVTVSS | high polyreactivity |
| QVQLVESGGGLVQAGGSLRLSCAASGSIFAPNAMGWYRQAPGKERELVAAISRSGGRTYYADSVKGRFTISRDNAKNTVYFQMNSLKPEDTAVYYCAADYKHQRTYGSWGQGTQVTVSS | high polyreactivity |
| QVQLVESGGGLVQAGGSLRLSCAASGSTFYPYAMGWYRQAPGKERELVAAISSGGSTYYADSVKGRFTISRDNAKNTVYLQMNSLKPEDTAVYYCAADLYYAYYWGQGTQVTVSS | low polyreactivity |
| QVQLVESGGGLVQAGGSLRLSCAASGRIFRKYTMGWYRQAPGKERELVAAISRNGGDTYYADSVKGRFTISRDNAKNTVYLQMNSLKPEDTAVYYCNARTPTDSTHFDYWGQGTQVTVSS | low polyreactivity |
| QVQLVESGGGLVQAGGSLRLSCAASGSIFGFNAMGWYRQAPGKEREFVAVISNRGGSTYYADSVKGRFTISRDNAKNTVYLQMNSLKPEDTAVYYCAARPYRDSGYWGQGTQVTVSS | high polyreactivity |
| QVQLVESGGGLVQAGGSLRLSCAASGSTFNYNAMGWYRQAPGKEREFVAAISRSGGSTSYADSVKGRFTLSRDNAKNTVYLQMNSLKPEDTAVYYCAAYYRKTGYDYWGQGTQVTVSS | high polyreactivity |
| QVQLVESGGGLVQAGGSLRLSCAAYGSTFKSYAMGWYSQAPGKDRELVAAITHRGSTYYADSVKGRFTISRDNAKNTVYLQMNSLKPEDTAVYYCNVRRIGNGRRVDYWGQGTQVTVSS | high polyreactivity |
| QVQLVESGGGLVQAGGSLRLSCAASGSIFYGYAMGWYRQAPGKERELVAGISNGGSTNYADSVKGRFTISRDNAKNTVYLQLNSLKPEDTAVYYCNATYYSAYSYLYGYWGQGTQVTVSS | low polyreactivity |
| QLQLVESGGGLVQAGGSLRLSCAASGFTFDSYAMGWYRQAPGKERELVAAITWDGGSTYYADSVKGRFTISRDNAKNTVYLQMNSLKPEDTAVYYCAADFGTISIDVYSWMDYWGQGTQVTVSS | low polyreactivity |
| QVQLVESGGGLVQAGGSLRLSCAASGRIFSVYAMGWYRQAPGKEREFVAAITKGGVGTYYADSVKGRFTISRDNAKNTVYLQMNSLKPEDTAVYYCAARHYYGADRYYSWGQGTLVTVSS | high polyreactivity |
| QVQLVESGGGLVQAGGSLRLSCAASGSIFPFYAMGWYIQAPGKERELVAAISDRGGSTYYADSVKGRFTISRDNAKNTVYLQMNSLKPEDTAVYYCAADKYSQWSSHTRVRYDYWGQGTQVTVSS | low polyreactivity |
| QVQLVESGGGLVQAGGSLRLSCAASGFTFDYNAMGWYRQAPGKERELVAAISASGGSTYYADSVKGRYTISRDTAKNTVYLQMNSLKPEYTAVYYCAAKRFSPQHRYDHWGQGTQVTVSS | high polyreactivity |
| QVQLVESGGGLVQAGGSLRLSCAASGRIFGYYVMGWYRQAPGQERELVARIRSGGNTYYADSVKGRFTISRDNAKNTVYLQMNSLKPEDTAVYYCNADPRTGWYKYDYWGQGTQVTVSS | high polyreactivity |
| QVQLVESGGGLVQAGGSLRLSCAASGSTFTGNAMGWYRQAPGKERELVASIRRIGSPYYADSVKGRFTISRDNAKNTVDLQMISLKPEDTAVFYCAAAVKIRTPYQYGYWGQGTQVTVSS | high polyreactivity |
| QVQLVESGGGLVQAGGSLRLSCADSGRTFYINAMGWYRQAPGKERELVAAISSSGGITYYADSVKGRFTISRENAKNTVYLQMNSLKPEDTAVYYCNAPYVYSWHYDYWGQGTQVTVSS | low polyreactivity |
| QVQLVESGGGLVQAGGSLRLSCAASGLIFYDNLGWYRQAPGKDRELVAAISSSGGSTSYADSVKGRFTISRDNAKNTVYLPMNSLKPEDTAVYYCAAKWSHVRDGPKYDYWGQGTQVTVSS | low polyreactivity |
| QVQLEESGGGLDQAGGSLRLTCAASGSIFLWNAMGWSRQSPGKERQLVAAISSGTSTIYADSVKGRFTISRDNAKNTVYLQMNSLKREDTAVYYCAARGRKNQRRYGYWGLGTQVTVSS | low polyreactivity |
| QVQLVESGGGLVQAGGSLRLSCAASGYTLDGYAMGWYRQAPGKERDFVAAITFRGGGTYYADSVKGRFTISRDNSKNTVYLQMISLKPEDSAVYYCNADTYDPFPWGSDYWGQGTQVNVSS | high polyreactivity |
| QVQLVESGGGLVQAGGSLRLSCAASGFTFSVYAMGWYRQAPGKERELVADIDWSGGSTYYADSVKGRFTISRDNAKNTVYLQMNSLNPEDTAVYYCAADYYYPDSYVQGTSGEYWGQGTQVTVSS | low polyreactivity |

| Sequence | polyreactivity (PSR sort gate) |
| --- | --- |
| QVQLVESGGGLVQAGGSLRLSTAASGSTLWYNDMGWFRKAPGKERELVASITSDGGSSTYADSVKGRFTISRDNEKNTVYLQMNSLKPEDTAVYYCAADWPIVQYDYWGQGTQVTVSS | low polyreactivity |
| QVQLVESGGGLVQAGGSLRLCCAASGRIFRYNAMGWYRQAPGKERELVAAITRSGGSTYYADSVKGRFTISRDNAKNTVYLQMNSLKPEDTAVYYCAKVQNGQWSTSRVPGDYQYNYWGQGTQVTVTS | high polyreactivity |
| QVQLVESGGGLVQAGGSLSLSCAASGSTIVYYAMGWYRPAPRKERELVAAINYSSGSTYYADSVKGRFTISRDNSKKTVYLQMNSLKPEDRAVYYCATDLLYYQYYSEYDYWGQGTQVTVSS | high polyreactivity |
| QVQLVDSRGGLVQAGGSLRLSCAASGSIFSYYAMGWYRQAPGKEMELVAAITSSDGSTYYPDSVKGRFTISRDNAKNTVYLQINSLKPEDTAVYDCKAVRKYWLLGRYDYWGQGTQVTVSS | high polyreactivity |
| QVQLVESGGGLVHAGGSLRISCAASGRIFYKYAMAWYRQAPGKERELVAAISTRGGSTYYADSVKWRFTISRDIAKNTVYSQMNSLKPEDTAVYYCAALSAYGYDYCGQGTQVTVSS | high polyreactivity |
| QVQLVESGGGIVQAGGSLRLSCAASGRTFMLYAMGWYRQAPGKERELVASIDRNGGRTYYADSVKGRFTISRDNAKNTVYLQMNSLIPEDTAVYYCAARWYDYGYWGQGTQVTGSS | high polyreactivity |
| QVQLVESGGGLVQAGGSLRLSGSASGIIFIYYTIGWYRQAPGTESELVAVITTSGDGTYYADSVKGRFTISRDNAKNTVYLQMNSLKPEDTAVYYCAASYSTWVSTRNDYWGQGTQVTVSS | low polyreactivity |
| QVQLVESGGGLVQAGGSLRLSCAASGFIFGRYTMGWYRQAPGKERELVAAISGSDVSTYYADSVKGRFTISRDNAKNTVYLQMNSLKPEDTAVYYCAADAPWAYYEYDYWGQGTQVTVSS | low polyreactivity |
| QVQLVESGGGLVQAGGRLRLSCAASGRTFTPYTMGWYIKAPGKEREFVAAIRTGGNTYYADSVKGRFTISRDNAKNTVYLQMNSLKPEDTAVFYCAARDRIGYRLYYWGQGTQVTVSS | high polyreactivity |
| QVQLVESWGGLVQAGGSLRLSCAASGSTFDVNAMGWYRQAPGKERELVAAISWNSGSTYYADSVKGRFTISRDNAKNTVYLQMNSLKPEDTAVYYCAARNPFNHPLDYWGQGTQVTVSS | high polyreactivity |
| QVQLVESGGGLVQAGGSLRLSCAASGLILSSNTMGWYRQAPGKERELVARIRRNDGNTYYADSVKGRFTISRDNAKNTVYLQMNSLKPEDTAVYYCAQYLAIGYYWGQGTQVTVSS | low polyreactivity |
| QVQLVESGGGLVQAGGSLRLSCAASGFIFGKYAMGWYRQAPGKEREFVAAITGNGGSTYYADSVKGRFTISRDYAKNTVYLQMNSLKPVDSAVYYCYADRGYRRRSGMVYWGQGTQVSVSS | low polyreactivity |
| QVQLVESGGRLVQAGGSLRLSCAPSGRTLGRYTMGWYRQAPGKERELVAGISSGGSTNYADSVKGRFTISRDNAKNTVYLQMNSLKPEDTAVYYCNSRGYSYGARYYYWGQGTQVTLSS | high polyreactivity |
| QVQLVESGGGLVQAGGSLRLSCAPSGRTYLTYVMGWYRQAPGKERELVAAITRGGRTNYADSVKGRFTISRDNAKNTVYLQMNSLQPEDTAVYYCARDIHSVHNNRDKHDYDDWGQGTLVTVSS | low polyreactivity |
| QVQHVESGGGLVQAGGSLRLSCAASGFTYRRYAMGWYRQSPGKERELVAAISYRGGTYYADSVKGRFTISRDKAKNTLYLQMTSLIPEDTAVYYCNARYRGKYSSYGYWGQGTQVTVSS | high polyreactivity |
| QVQLEDSGGGLVQAGGSLRLSCAASGRIFGTNAMGWYRQAPGKERELVATITRGGGNTYYADSVKGRFTISRDNAKNTVYLQMNSLKPEDTAVYYCAAKFNRFAWYSHYDYWGQGTQVTVSS | low polyreactivity |
| QVQLVESGGGLVQAGGSLRLSCAASGSTFKRYAMGWYRQAPGKERELVAAITNGDRTNYADSVKGRFTISRDNAKNTVYLHMNSLKPEDTALYYCAAAYSRYTSRFYYWGQGTQVTVSS | high polyreactivity |
| QVQLVESGGGLVQAGGSLRLSCAASGNTFVAYAMGWYRQAPGKERELVAGITRGGTTYYADSVKGRFTISRDNAKNTVYLQMNSLKPEDTAVYYCAARLGYRYNYWGQGTQVTVSS | high polyreactivity |
| QVQLVESGGGLVQAGGSLRLSCAASGSTFSPYAMGWYRPAPGKERELVAAITSGGSTYYADSVKGRFTISRDNAKNTVYLQMNSLKPEDTAVYYCNVVYIRVRRYNYWGQGTQVTVSS | high polyreactivity |
| QVQLVESGGGLVQAGGSLRLSCAASGRIFWHNAMGWYRQAPGKERELVAAITGGGSTYYADSVKGRFTISRDNAKNTVYLQMNSLKPEDTAVYYCATLGSLRYYWPGYDYWGQGTQVTVSS | low polyreactivity |
| QVQLVESGGGLVQAGGSLRLSCAASGITLGAYAMGWYRQAPGKERELVAAISRSGGSTYYADSVKGRFTISRDNAKNTVYLQMNSLKPEDTAVYYCNAGITHGYDYWGQGTQLTVSS | high polyreactivity |
